# Residue numbers refer to the chain shown, from its start.
# T1: Oregon Green 488 maleimide-modified BR (OG488-BR) (human, Oregon Green 488 maleimide on the added N-terminal Cys)
# T1 construct: also called fluorescently labeled FVBR
# T1 peptide: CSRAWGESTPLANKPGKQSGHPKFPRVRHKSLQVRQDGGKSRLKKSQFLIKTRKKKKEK
# T2: TFPI C-terminal tail peptide
# T2 construct: The limits are therefore uncertain; also called TFPI peptide
# T2 peptide: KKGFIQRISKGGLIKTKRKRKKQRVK
# B1: FV-810 (FV-DT), Factor V with amino acids 811-1491 deleted from the B-domain (other, human, UniProt P12259 29-838, looked up)
# chain: AQLRQFYVAAQGISWSYRPEPTNSSLNLSVTSFKKIVYREYEPYFKKEKPQSTISGLLGPTLYAEVGDIIKVHFKNKADKPLSIHPQGIRYSKLSEGASYLDHTFPAEKMDDAVAPGREYTYEWSISEDSGPTHDDPPCLTHIYYSHENLIEDFNSGLIGPLLICKKGTLTEGGTQKTFDKQIVLLFAVFDESKSWSQSSSLMYTVNGYVNGTMPDITVCAHDHISWHLLGMSSGPELFSIHFNGQVLEQNHHKVSAITLVSATSTTANMTVGPEGKWIISSLTPKHLQAGMQAYIDIKNCPKKTRNLKKITREQRRHMKRWEYFIAAEEVIWDYAPVIPANMDKKYRSQHLDNFSNQIGKHYKKVMYTQYEDESFTKHTVNPNMKEDGILGPIIRAQVRDTLKIVFKNMASRPYSIYPHGVTFSPYEDEVNSSFTSGRNNTMIRAVQPGETYTYKWNILEFDEPTENDAQCLTRPYYSDVDIMRDIASGLIGLLLICKSRSLDRRGIQRAADIEQQAVFAVFDENKSWYLEDNINKFCENPDEVKRDDPKFYESNIMSTINGYVPESITTLGFCFDDTVQWHFCSVGTQNEILTIHFTGHSFIYGKRHEDTLTLFPMRGESVTVTMDNVGTWMLTSMNSSPRSKKLRLKFRDVKCIPDDDEDSYEIFEPPESTVMATRKMHDRLEPEDEESDADYDYQNRLAAALGIRSFRNSSLNQEEEEFNLTALALENGTEFVSSNTDIIVGSNYSSPSNISKFTVNNLAEPQKAPSHQQATTAGSPLRHLIGKNSVLNSSTAEHSSPYSEDPIEDTDYIEIIPKEEVQSSEDDYAEIDYVPYDDPYKTDVRTNINSSRDPDNIAAWYLRSNNGNRRNYYIAAEEISWDYSEFVQRETDIEDSDDIPEDTTYKKVVFRKYLDSTFTKRDPRGEYEEHLGILGPIIRAEVDDVIQVRFKNLASRPYSLHAHGLSYEKSSEGKTYEDDSPEWFKEDNAVQPNSSYTYVWHATERSGPESPGSACRAWAYYSAVNPEKDIHSGLIGPLLICQKGILHKDSNMPMDMREFVLLFMTFDEKKSWYYEKKSRSSWRLTSSEMKKSHEFHAINGMIYSLPGLKMYEQEWVRLHLLNIGGSQDIHVVHFHGQTLLENGNKQHQLGVWPLLPGSFKTLEMKASKPGWWLLNTEVGENQRAGMQTPFLIMDRDCRMPMGLSTGIISDSQIKASEFLGYWEPRLARLNNGGSYNAWSVEKLAAEFASKPWIQVDMQKEVIITGIQTQGAKHYLKSCYTTEFYVAYSSNQINWQIFKGNSTRNVMYFNGNSDASTIKENQFDPPIVARYIRISPTRAYNRPTLRLELQGCEVNGCSTPLGMENGKIENKQITASSFKKSWWGDYWEPFRARLNAQGRVNAWQAKANNNKQWLEIDLLKIKKITAIITQGCKSLSSEMYVKSYTIHYSEQGVEWKPYRLKSSMVDKIFEGNTNTKGHVKNFFNPPIISRFIRVIPKTWNQSIALRLELFGCDIY
# notes: range 1-810;range 1492-2196; Single-chain cofactor-like variant; All residue numbers count on mature Factor V (add 28 for the precursor)
# B2: FV-810^R709Q (other, human, UniProt P12259 29-838, looked up)
# chain: B1 chain with R709Q
# notes: range 1-810;range 1492-2196; mature numbering
# B3: FV-810^QQ (other, human, UniProt P12259 29-838, looked up)
# chain: B1 chain with R709Q, R864Q
# notes: range 1-810;range 1492-2196; Both thrombin sites (Arg709 and Arg1545) changed to Gln; The same molecule is used for the thrombin-pretreated sample, since both cleavage sites are removed; the assay field says where thrombin pretreatment was used
# B4: FV-810^R1545Q (other, human, UniProt P12259 29-838, looked up)
# chain: B1 chain with R864Q
# notes: as for B2
# B5: Factor V basic region peptide (FVBR), amino acids 951-1008 of Factor V (peptide)
# peptide: SRAWGESTPLANKPGKQSGHPKFPRVRHKSLQVRQDGGKSRLKKSQFLIKTRKKKKEK
# notes: Expressed in E. coli as a SUMO fusion; also called FV basic peptide; BR peptide
# B6: Bovine BR (Bos taurus Ser938-Lys996) (peptide, UniProt Q28107 966-1024, looked up)
# peptide: SRTWGENIPFKNSHGKQSGHPTFLVTRRKPLQDRQDRRNSRLKEGLPLIRTRRKKKEEK
# Assays:
# [1] = target: FV-810 (FV-DT), Factor V with amino acids 811-1491 deleted from the B-domain (human) (UniProt P12259); assay: global fit of prethrombin-2 activation rates (1-50 nM FXa, 0-1000 nM BR, 5 nM FV-810, 50 uM PCPS) to a tight, competitive binding model
# [2] = target: FV-810 (FV-DT), Factor V with amino acids 811-1491 deleted from the B-domain (human) (UniProt P12259); assay: fluorescence anisotropy, displacement; FXa S195A titrated into 30 nM OG488-BR, 20 nM FV-810, 50 uM PCPS, 25 C; displaced ligand: OG488-BR
# [3] = target: FV-810 (FV-DT), Factor V with amino acids 811-1491 deleted from the B-domain (human) (UniProt P12259); assay: fluorescence anisotropy displacement of OG488-BR; FXaS195A titrated into 30 nM OG488-BR, 20 nM FV-810, 50 uM PCPS
# [4] = target: T3, Fluorescently-labeled, active site-blocked FXa (UniProt P00742 41-179; P00742 235-488, fluorescently-labeled, active site-blocked (label and blocker not named)); assay: fluorescence anisotropy; FVDT titrated into fluorescently labeled, active site-blocked FXa on PCPS liposomes, buffer only (no FVBR); concentration of labeled FXa not given
# T3 construct: also called fluorescently labeled FXa
# [5] = target: T1, Oregon Green 488 maleimide-modified BR …; assay: fluorescence anisotropy; FVDT titrated into fluorescently labeled FVBR (probe concentration not given)
# [6] = target: T1, Oregon Green 488 maleimide-modified BR …; assay: fluorescence anisotropy; FV-810 titrated into 20 nM OG488-BR with 50 uM PCPS, 25 C
# Procedure: (§1) Control experiments were performed by titrating FV-810 into buffer containing 10 mM EDTA (X) or by titrating rFVa (▴).
# (§2) Steady-state fluorescence anisotropy was measured at 25° C. in a PTI Quanta-Master™ fluorescence spectrophotometer (Photon Technology International, Birmingham, N.J.) using excitation and emission wavelengths of 480 and 520 nm, respectively, with long-pass filters (KV500, CVI Melles Griot) in the emission beam.
# [7] = target: T1, Oregon Green 488 maleimide-modified BR …; assay: fluorescence anisotropy; FV-810 titrated into 40 nM OG488-BR with 50 uM PCPS, 25 C
# Procedure: as §1, §2
# [8] = target: T1, Oregon Green 488 maleimide-modified BR …; assay: fluorescence anisotropy; buffer-pretreated FV-810 titrated into 30 nM OG488-BR with 50 uM PCPS
# Procedure: (§3) FV-810, FV-810^R709Q (▴), FV-810^R1545Q (♦), and FV-810^QQ (▪) were pretreated with buffer (FIG. 14A) or thrombin (FIG. 14B).
# as §2
# [9] = target: T2, TFPI C-terminal tail peptide; assay: fluorescence anisotropy; FVDT titrated into the TFPI peptide (label and probe concentration not stated)
# [10] = target: T1, Oregon Green 488 maleimide-modified BR …; assay: fluorescence anisotropy; buffer-pretreated FV-810 R709Q titrated into 30 nM OG488-BR with 50 uM PCPS
# Procedure: as §3, §2
# [11] = target: T1, Oregon Green 488 maleimide-modified BR …; assay: fluorescence anisotropy; thrombin-pretreated, hirudin-quenched FV-810 QQ titrated into 30 nM OG488-BR with 50 uM PCPS
# Procedure: as §3, §2
# [12] = target: T1, Oregon Green 488 maleimide-modified BR …; assay: fluorescence anisotropy; buffer-pretreated FV-810 QQ titrated into 30 nM OG488-BR with 50 uM PCPS
# Procedure: as §3, §2
# [13] = target: T1, Oregon Green 488 maleimide-modified BR …; assay: fluorescence anisotropy; buffer-pretreated FV-810 R1545Q titrated into 30 nM OG488-BR with 50 uM PCPS
# Procedure: as §3, §2
# [14] = target: B1; assay: fluorescence anisotropy, displacement; unlabeled BR titrated into 30 nM OG488-BR, 20 nM FV-810, 50 uM PCPS; competitor: OG488-BR [inset]
# Procedure: as §1
# [15] = target: B1; assay: fluorescence anisotropy, displacement; FVBR titrated into labeled active site-blocked FXa plus FVDT on PCPS liposomes; displaced ligand: labeled FXa
# [16] = target: B1; assay: fluorescence anisotropy displacement of OG488-BR; 30 nM OG488-BR, 20 nM FV-810, 50 uM PCPS; stoichiometry of 1 assumed
# [17] = target: B1; assay: fluorescence anisotropy, displacement; human BR titrated into 30 nM OG488-BR, 20 nM FV-810, 50 uM PCPS, 25 C; competitor: OG488-BR
# [18] = target: B1; assay: fluorescence anisotropy displacement; unlabeled BR titrated into 30 nM OG488-BR, 20 nM FV-810, 50 uM PCPS
# Procedure: as §1
# (§4) Data were analyzed by nonlinear least squares regression analysis using the Marquardt algorithm (Bevington et al. (1992) Data Reduction and Error Analysis for the Physical Sciences, pp. 141-167, McGraw-Hill, New York), and the quality of each fit was assessed as described (Straume et al. (1992) Methods Enzymol., 210:87-105).
# [19] = target: B1; assay: global fit of prethrombin-2 activation rates (1-50 nM FXa, 0-1000 nM BR, 5 nM FV-810, 50 uM PCPS) to a tight, competitive binding model
# Procedure: as §4
# [20] = target: FV-810 (FV-DT), Factor V with amino acids 811-1491 deleted from the B-domain (human) (UniProt P12259); assay: fluorescence anisotropy displacement of OG488-BR; 30 nM OG488-BR, 20 nM FV-810, 50 uM PCPS; stoichiometry of 1 assumed
# [21] = target: FV-810 (FV-DT), Factor V with amino acids 811-1491 deleted from the B-domain (human) (UniProt P12259); assay: fluorescence anisotropy, displacement; bovine BR titrated into 30 nM OG488-BR, 20 nM FV-810, 50 uM PCPS, 25 C; competitor: OG488-BR
# [22] = target: FV-810 (FV-DT), Factor V with amino acids 811-1491 deleted from the B-domain (human) (UniProt P12259); assay: fluorescence anisotropy displacement of OG488-BR
# T3 sequence (P00742 41-179 limits assumed, chain 1 of 2): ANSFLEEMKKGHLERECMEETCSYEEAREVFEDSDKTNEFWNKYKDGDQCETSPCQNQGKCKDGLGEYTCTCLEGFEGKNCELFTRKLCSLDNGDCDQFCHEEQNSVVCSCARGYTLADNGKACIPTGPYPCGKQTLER
# T3 sequence (P00742 235-488 limits assumed, chain 2 of 2): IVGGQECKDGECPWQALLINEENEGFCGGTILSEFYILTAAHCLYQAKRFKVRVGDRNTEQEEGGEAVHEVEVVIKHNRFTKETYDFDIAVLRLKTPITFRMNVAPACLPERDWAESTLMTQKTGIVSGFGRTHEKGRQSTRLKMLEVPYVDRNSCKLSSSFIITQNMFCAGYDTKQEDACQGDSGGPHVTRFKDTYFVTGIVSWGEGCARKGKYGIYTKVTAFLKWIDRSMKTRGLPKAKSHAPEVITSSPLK
molecule,measurement,setting,value
Factor Xa (FXa) (from UniProt P00742 41-179; P00742 235-488) (enzyme),Kd,[1],2 nM
catalytically inactive FXa^S195A (from UniProt P00742 41-179; P00742 235-488) (enzyme),IC50 (read off the curve),[2],40 nM
same,n (stoichiometry) (mol of FXa/mol of FV-810),[3],1.1
B1,EC50 (read off the curve),[4],6 to 8 nM
same,EC50 (read off the curve),[5],10 to 15 nM
same,EC50 (read off the curve),[6],~8 nM
same,EC50 (read off the curve),[7],~10 nM
same,EC50 (read off the curve),[8],10 to 15 nM
same,EC50 (read off the curve),[9],~10 nM
B2,EC50 (read off the curve),[10],15 to 20 nM
B3,EC50 (read off the curve),[11],10 to 15 nM
same,EC50 (read off the curve),[12],~9 nM
B4,EC50 (read off the curve),[13],10 to 15 nM
B5,IC50 (read off the curve),[14],~50 nM
same,IC50 (read off the curve),[15],~90 nM
same,Kd,[16],2.2 nM
same,IC50 (read off the curve),[17],~50 nM
same,Kd,[18],2.1 nM
same,Kd,[19],34.2 nM
B6,Kd,[20],28.3 nM
same,IC50 (read off the curve),[21],300 to 400 nM
same,fold weaker binding than the human BR,[22],10 fold
